This data set deals with MS2 coat protein. Nature of the data set: apparent KD of MS2 coat protein; higher = weaker reporter binding. As to conditions: Eterna round: R107. Summed up:
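SNAP-549-labelled MS2 coat protein was titrated onto designed RNA switches that had been transcribed on-chip from Illumina sequencing clusters. Amounts doubled from 0.7 or 1.5 nM to 3 µM in 100 mM Tris-HCl pH 7.5, 80 mM KCl, 4 mM MgCl2, with constant ligand or without. Apparent KD is the median per design of normalised cluster binding-curve fits.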

[1] abbreviates: input ligand: theophylline 20 uM.
The mark [2] stands for this setting: input ligand: theophylline 2 mM.
Setting [3] is: input ligand: tryptophan 2.4 mM.

Results on 13 sequences are retold here after the supplement of paper PMC9170038.

For “CAGACUAGGGCGGCCGCCACUGUGGCUACGGUACAUGAGGAUCACCCAUGUUUGUGGUUGAUCUACAGGACCGGGCCCUGGCACG [Orbera]”, the “apparent KD of MS2 coat protein” value was 9.05 nM (input ligand: arginine 13.2 mM); 305 nM (input ligand: none); 588 nM under setting [1]; 200 nM under setting [2]; 273 nM under setting [3].
“CAUCCACCUGAAGCCUCCCAAUUCCUCGAUACCAGAGGAUUAAGACUCCCUUGGCAGCGAGCUACAUGAGGAUCACCCAUGUGCC [theeternabot_exclusion_MS2_Theo_A_32]”: the “apparent KD of MS2 coat protein” value reads like this: (input ligand: arginine 13.2 mM) 17.8 nM; under setting [1], 24.1 nM; under setting [3], 18.2 nM.
With “CAUCCUAGUACAUGAGGAUCACCCAUGUAUCGAGGACCGGUACGGCCGCCACUCGAAUGGCGGAUCGUUAAUCCUCUAGGAUGGA [Tryp A Ex 4a]”, the “apparent KD of MS2 coat protein” value was 11.7 nM (input ligand: arginine 13.2 mM), 14 nM under setting [1] and 11.5 nM under setting [2].
Taken in the same sequence, the figures for “CAUGCCAGGGCGGCCGCCACUGUGGCUACGGUACAUGAGGAUCACCCAUGUUUGUGGUUGAUCUACAGGACCGGGCCCUAGCACG [Anananenes]” were 30.6 nM, 597 nM and 528 nM.
As for “CAUUAAUUACGAAGGAGCGUCGAAAAUGGGUAAACAUGAGGAUCACCCAUGUAAAGGGAACGACAGGUAGGUCGCGUAAUUAAUG [AstromonsSSArgB#2]”, the “apparent KD of MS2 coat protein” value came out at 132 nM (input ligand: arginine 13.2 mM); 170 nM (input ligand: none); 169 nM under setting [1]; 230 nM under setting [2]; 158 nM under setting [3].
Turning to “CAUUAUGUAACUGAUACCAGUGUACUGACAUGAGGAUCACCCAUGUUGGGUUUUGUUGUACACCCUUGGCAGCAGAAUCAUAAUG [AstrosExyTheB#2]”, the “apparent KD of MS2 coat protein” value is, setting by setting: (input ligand: arginine 13.2 mM) 43.3 nM; under setting [1], 70.3 nM; under setting [3], 57.8 nM.
“CAUUGAGCAGCUGAUACCAGUGCCUGAACUUACAUGAGGAUCACCCAUGUAUGCCCAAAACACCCUUGGCAGCAGAGGAAGAUCG [theeternabot_sameState_MS2_Theo_B_38]”: the “apparent KD of MS2 coat protein” value was 15.2 nM (input ligand: arginine 13.2 mM), 18.9 nM under setting [1] and 14.5 nM under setting [3].
As for “CCACACAUGAGGAUCACCCAUGUAAUUGAUACCAGAUUUAAAUGAGUCCCUUGGCAGCAGUGAGCUAGAGUUGUCGUAUAUAUGG [Theo A SS t2]”, the “apparent KD of MS2 coat protein” value by setting is: (input ligand: arginine 13.2 mM) 14.2 nM; under setting [1], 23.8 nM; under setting [3], 16.1 nM.
“CCAUAGGGUAAAUACGUAAUCAUAUCUGAAGGAGCGUGGAUAUACACAGGUAGGUCGCAGAAUCACAUGAGGAUCACCCAUGUCU [Same State Arginine A GF12]”: the “apparent KD of MS2 coat protein” value reads like this: (input ligand: arginine 13.2 mM) 28.8 nM; (input ligand: none) 41.2 nM; under setting [1], 39.8 nM; under setting [2], 47.5 nM; under setting [3], 42.7 nM.
As to “CCAUUGAUGACGGCCGCCACUGUCUACAUGAGGAUCACCCAUGUAUAGCAGGGUGGACCUAUGGACAGGACCGGGUCACUUGUCC [Tryp B Ex t7]”, the “apparent KD of MS2 coat protein” value (input ligand: arginine 13.2 mM) was determined as 10.4 nM, the “apparent KD of MS2 coat protein” value under setting [1] is 13.7 nM and the “apparent KD of MS2 coat protein” value under setting [2] was determined as 12.4 nM.
With “CCCAAUUAGAUCUUUGGAAUUUUACUCGAAGGAGCGUCAUAGUAGGCAGGUAGGUCGCGAGACAUGAGGAUCACCCAUGUAGAGA [btbmullin]”, the “apparent KD of MS2 coat protein” value runs as follows: (input ligand: arginine 13.2 mM) 33 nM; (input ligand: none) 40.9 nM; under setting [1], 50.8 nM; under setting [2], 38.5 nM; under setting [3], 33 nM.
As for “CCCUGGGUGGGAAGGAGCGCAUAGUGAACAUGAGGAUCACCCAUGUGUAGACGUGAGUCACUGCAGGUAGGUCGCCCACCCAGGG [SS-ArgB23]”, the “apparent KD of MS2 coat protein” value is, setting by setting: (input ligand: arginine 13.2 mM) 19.5 nM; (input ligand: none) 27.5 nM; under setting [1], 47.3 nM; under setting [2], 46.5 nM; under setting [3], 29.5 nM.
On to “CCGGCGCGAUUAUGGGUUUGCUUUUACGAUACCAGCCGCGUUCCGGGCCCUUGGCAGCGUGUAACAUGAGGAUCACCCAUGUUCA [theeternabot_exclusion_MS2_Theo_A_37]”, for which the “apparent KD of MS2 coat protein” value is, setting by setting: (input ligand: arginine 13.2 mM) 9.81 nM; under setting [1], 20.7 nM; under setting [3], 10.1 nM.
